Values belong to the substance of their own block, whether it stands above or below them.
How the values were obtained:
[1] = biological target: human IL-27 (single-chain molecule: EBI3 connected by its C-terminus to the N-terminus of IL-27 p28 via a polypeptide linker, amino-terminal peptide tag) (human) (UniProt Q14213); assay: cell-based or functional assay
[2] = biological target: mouse IL-27 (single-chain molecule: EBI3 connected by its C-terminus to the N-terminus of IL-27 p28 via a polypeptide linker, amino-terminal peptide tag) (mouse) (UniProt O35228); assay: cell-based or functional assay
[3] = biological target: human IL-27 (single-chain molecule: EBI3 connected by its C-terminus to the N-terminus of IL-27 p28 via a polypeptide linker, amino-terminal peptide tag) (human) (UniProt Q14213); assay: SPR (BIACORE 3000), receptor amine-coupled to CM5 chip, ligand as analyte, 1:1 model with mass transport
[4] = biological target: mouse IL-27 (single-chain molecule: EBI3 connected by its C-terminus to the N-terminus of IL-27 p28 via a polypeptide linker, amino-terminal peptide tag) (mouse) (UniProt O35228); assay: as above
[5] = biological target: mouse IL-27 (single-chain molecule: EBI3 connected by its C-terminus to the N-terminus of IL-27 p28 via a polypeptide linker, amino-terminal peptide tag) (mouse) (UniProt O35228); assay: SPR (BIACORE 3000), receptor captured by anti-mouse Fc antibody on CM5 chip, ligand as analyte, 1:1 model with mass transport

- IC50 (nM), inhibition of IL-27-induced STAT3 phosphorylation, mouse spleens, huIL-27 at EC90 2 nM [1]: 0.32 nM
- IC50 (nM), inhibition of IL-27-induced STAT3 phosphorylation, total human PBMCs, huIL-27 at EC90 2 nM [1]: 0.95 nM
- IC50 (nM), inhibition of IL-27-induced STAT3 phosphorylation, mouse spleens, muIL-27 at EC90 0.2 nM [2]: 0.14 nM
- IC50 (nM), inhibition of IL-27-induced STAT3 phosphorylation, total human PBMCs, muIL-27 at EC90 2 nM [2]: 2.97 nM
- IL-2 concentration (pg/ml), naive mouse CD4 T cells, 48 hr, hIL-27RA 0 ug/ml (zero point, no soluble receptor present) + mouse IL-27 10 ng/ml [2]: 1780 pg/mL
- IL-2 concentration (pg/ml), naive mouse CD4 T cells, 48 hr, hIL-27RA 5 ug/ml + mouse IL-27 10 ng/ml [2]: 5780 pg/mL
- IL-2 concentration (pg/ml), naive mouse CD4 T cells, 48 hr, hIL-27RA 10 ug/ml (second row) + mouse IL-27 10 ng/ml [2]: 5330 pg/mL
- IL-2 concentration (pg/ml), naive mouse CD4 T cells, 48 hr, hIL-27RA 10 ug/ml + mouse IL-27 10 ng/ml [2]: 5770 pg/mL
- IL-2 concentration (pg/ml), naive mouse CD4 T cells, 72 hr, hIL-27RA 0 ug/ml (zero point, no soluble receptor present) + mouse IL-27 10 ng/ml [2]: 1260 pg/mL
- IL-2 concentration (pg/ml), naive mouse CD4 T cells, 72 hr, hIL-27RA 5 ug/ml + mouse IL-27 10 ng/ml [2]: 1870 pg/mL
- IL-2 concentration (pg/ml), naive mouse CD4 T cells, 72 hr, hIL-27RA 10 ug/ml (second row) + mouse IL-27 10 ng/ml [2]: 17500 pg/mL
- IL-2 concentration (pg/ml), naive mouse CD4 T cells, 72 hr, hIL-27RA 10 ug/ml + mouse IL-27 10 ng/ml [2]: 28600 pg/mL
- block of the ability of mouse IL-27 to inhibit IL-2 production by naive CD4 T cells [2]: 50%
- Kd [3]: 0.19 nM
- koff [3]: 0.0019 s⁻¹
- kon [3]: 1e+07 M⁻¹ s⁻¹
- Kd [4]: 0.22 nM
- koff [4]: 0.0018 s⁻¹
- kon [4]: 8.1e+06 M⁻¹ s⁻¹
Substance: human IL27RA-Fc5 fusion protein (Fc fusion)

- IC50 (nM), inhibition of IL-27-induced STAT3 phosphorylation, mouse spleens, huIL-27 at EC90 2 nM [1]: 9.3 nM
- IC50 (nM), inhibition of IL-27-induced STAT3 phosphorylation, total human PBMCs, huIL-27 at EC90 2 nM [1]: 1370 nM
- IC50 (nM), inhibition of IL-27-induced STAT3 phosphorylation, mouse spleens, muIL-27 at EC90 0.2 nM [2]: 0.18 nM
- IC50 (nM), inhibition of IL-27-induced STAT3 phosphorylation, total human PBMCs, muIL-27 at EC90 2 nM [2]: 4.83 nM
- IL-2 concentration (pg/ml), naive mouse CD4 T cells, 48 hr, mIL-27RA 0 ug/ml (zero point, no soluble receptor present) + mouse IL-27 10 ng/ml [2]: 1260 pg/mL
- IL-2 concentration (pg/ml), naive mouse CD4 T cells, 48 hr, mIL-27RA 5 ug/ml + mouse IL-27 10 ng/ml [2]: 4020 pg/mL
- IL-2 concentration (pg/ml), naive mouse CD4 T cells, 48 hr, mIL-27RA 10 ug/ml (second row) + mouse IL-27 10 ng/ml [2]: 4920 pg/mL
- IL-2 concentration (pg/ml), naive mouse CD4 T cells, 48 hr, mIL-27RA 10 ug/ml + mouse IL-27 10 ng/ml [2]: 5220 pg/mL
- IL-2 concentration (pg/ml), naive mouse CD4 T cells, 72 hr, mIL-27RA 0 ug/ml (zero point, no soluble receptor present) + mouse IL-27 10 ng/ml [2]: 234 pg/mL
- IL-2 concentration (pg/ml), naive mouse CD4 T cells, 72 hr, mIL-27RA 5 ug/ml + mouse IL-27 10 ng/ml [2]: 5740 pg/mL
- IL-2 concentration (pg/ml), naive mouse CD4 T cells, 72 hr, mIL-27RA 10 ug/ml (second row) + mouse IL-27 10 ng/ml [2]: 12200 pg/mL
- IL-2 concentration (pg/ml), naive mouse CD4 T cells, 72 hr, mIL-27RA 10 ug/ml + mouse IL-27 10 ng/ml [2]: 6700 pg/mL
- block of the ability of mouse IL-27 to inhibit IL-2 production by naive CD4 T cells [2]: 50%
- Kd [5]: 0.12 nM
- koff [5]: 0.0012 s⁻¹
- kon [5]: 1e+07 M⁻¹ s⁻¹
Substance: IL27RAm(mFc1), mouse IL27RA-Fc fusion polypeptide (extracellular domain of mouse IL27RA and wild type BALB/c mouse gamma2a constant region Fc tag)
